B1: TBPL1, P62380 (peptide)
chain: FVFESRKEIL
B2: SDC3, O75056 (peptide)
chain: KPDKQEEFYA

target: MAST1, Q9Y2H9; experiment: holdup assay; parameters: key: below the threshold = too weak to quantify, mostly under pKd 3.1 to 4; conditions: plain residues with an end cap or a label only (N-terminal biotin on a linker: ado-ado)
Sequence (Q9Y2H9 962-1065): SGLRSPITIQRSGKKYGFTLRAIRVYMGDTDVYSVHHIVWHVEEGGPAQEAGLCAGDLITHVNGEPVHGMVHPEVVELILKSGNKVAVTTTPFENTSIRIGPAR

Row | Binder | pKd
1 | B1 | 4.21
2 | B2 | 3.64

target: SCRIB_2, Q14160; experiment: holdup assay; parameters: key: below the threshold = too weak to quantify, mostly under pKd 3.1 to 4; conditions: plain residues with an end cap or a label only (N-terminal biotin on a linker: ado-ado)
Sequence (Q14160 857-960): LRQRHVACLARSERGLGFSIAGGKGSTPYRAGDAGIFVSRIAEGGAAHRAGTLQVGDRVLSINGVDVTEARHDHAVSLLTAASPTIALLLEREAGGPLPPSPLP

Row | Binder | pKd
3 | B1 | below the threshold
4 | B2 | below the threshold

target: GRIP2_3, Q9C0E4; experiment: holdup assay; parameters: key: below the threshold = too weak to quantify, mostly under pKd 3.1 to 4; conditions: plain residues with an end cap or a label only (N-terminal biotin on a linker: ado-ado)
Sequence (Q9C0E4 238-339): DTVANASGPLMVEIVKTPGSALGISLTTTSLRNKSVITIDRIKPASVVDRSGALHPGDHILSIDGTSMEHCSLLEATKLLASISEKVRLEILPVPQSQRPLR

Row | Binder | pKd
5 | B1 | below the threshold
6 | B2 | below the threshold

target: GOPC, Q9HD26; experiment: holdup assay; parameters: key: below the threshold = too weak to quantify, mostly under pKd 3.1 to 4; conditions: plain residues with an end cap or a label only (N-terminal biotin on a linker: ado-ado)

Row | Binder | pKd
7 | B1 | below the threshold
8 | B2 | below the threshold

target: DLG2_2, Q15700; experiment: holdup assay; parameters: key: below the threshold = too weak to quantify, mostly under pKd 3.1 to 4; conditions: plain residues with an end cap or a label only (N-terminal biotin on a linker: ado-ado)
Sequence (Q15700 189-283): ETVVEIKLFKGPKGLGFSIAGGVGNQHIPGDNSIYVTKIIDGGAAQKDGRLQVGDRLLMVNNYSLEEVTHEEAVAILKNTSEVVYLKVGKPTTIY

Row | Binder | pKd
9 | B1 | below the threshold
10 | B2 | below the threshold

target: LDB3, O75112; experiment: holdup assay; parameters: key: below the threshold = too weak to quantify, mostly under pKd 3.1 to 4; conditions: plain residues with an end cap or a label only (N-terminal biotin on a linker: ado-ado)
Sequence (O75112 1-94): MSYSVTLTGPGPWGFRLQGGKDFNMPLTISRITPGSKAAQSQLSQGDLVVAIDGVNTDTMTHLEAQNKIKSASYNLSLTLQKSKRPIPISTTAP

Row | Binder | pKd
11 | B1 | below the threshold
12 | B2 | below the threshold

target: T1, GRIP1_2, Q9Y3R0; experiment: holdup assay; parameters: key: below the threshold = too weak to quantify, mostly under pKd 3.1 to 4; conditions: plain residues with an end cap or a label only (N-terminal biotin on a linker: ado-ado)
T1 sequence (Q9Y3R0 145-248, limits assumed, looked up): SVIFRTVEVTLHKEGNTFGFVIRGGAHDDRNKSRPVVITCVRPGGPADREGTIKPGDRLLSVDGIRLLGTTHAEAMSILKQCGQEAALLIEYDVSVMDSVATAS

Row | Binder | pKd
13 | B1 | below the threshold
14 | B2 | below the threshold

target: PICK1, Q9NRD5; experiment: holdup assay; parameters: key: below the threshold = too weak to quantify, mostly under pKd 3.1 to 4; conditions: plain residues with an end cap or a label only (N-terminal biotin on a linker: ado-ado)
Sequence (Q9NRD5 17-115): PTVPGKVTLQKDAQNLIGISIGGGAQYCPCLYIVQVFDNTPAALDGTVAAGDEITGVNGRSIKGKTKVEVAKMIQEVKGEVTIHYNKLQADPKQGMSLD

Row | Binder | pKd
15 | B1 | below the threshold
16 | B2 | below the threshold

target: T2, NHERF3_3, Q5T2W1; experiment: holdup assay; parameters: key: below the threshold = too weak to quantify, mostly under pKd 3.1 to 4; conditions: plain residues with an end cap or a label only (N-terminal biotin on a linker: ado-ado)
T2 sequence (Q5T2W1 238-333, limits assumed, looked up): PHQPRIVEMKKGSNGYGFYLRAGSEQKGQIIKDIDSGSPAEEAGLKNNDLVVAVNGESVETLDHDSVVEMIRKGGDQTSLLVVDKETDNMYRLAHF

Row | Binder | pKd
17 | B1 | below the threshold
18 | B2 | below the threshold

target: PTPN3, P26045; experiment: holdup assay; parameters: key: below the threshold = too weak to quantify, mostly under pKd 3.1 to 4; conditions: plain residues with an end cap or a label only (N-terminal biotin on a linker: ado-ado)
Sequence (P26045 505-587): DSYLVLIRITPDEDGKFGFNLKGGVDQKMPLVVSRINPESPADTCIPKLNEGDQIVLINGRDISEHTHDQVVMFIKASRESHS

Row | Binder | pKd
19 | B1 | below the threshold
20 | B2 | 3.8

target: NHERF4_2, Q86UT5; experiment: holdup assay; parameters: key: below the threshold = too weak to quantify, mostly under pKd 3.1 to 4; conditions: plain residues with an end cap or a label only (N-terminal biotin on a linker: ado-ado)
Sequence (Q86UT5 220-308): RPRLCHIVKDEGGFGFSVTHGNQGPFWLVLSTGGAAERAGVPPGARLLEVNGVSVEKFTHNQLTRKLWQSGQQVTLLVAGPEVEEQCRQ

Row | Binder | pKd
21 | B1 | below the threshold
22 | B2 | below the threshold

target: T3, CARD11, Q9BXL7; experiment: holdup assay; parameters: key: below the threshold = too weak to quantify, mostly under pKd 3.1 to 4; conditions: plain residues with an end cap or a label only (N-terminal biotin on a linker: ado-ado)
T3 sequence (Q9BXL7 662-765, limits assumed, looked up): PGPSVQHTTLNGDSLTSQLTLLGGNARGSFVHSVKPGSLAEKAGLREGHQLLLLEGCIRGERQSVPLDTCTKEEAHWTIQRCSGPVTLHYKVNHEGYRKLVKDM

Row | Binder | pKd
23 | B1 | below the threshold
24 | B2 | below the threshold

target: T4, PDZD2_2, O15018; experiment: holdup assay; parameters: key: below the threshold = too weak to quantify, mostly under pKd 3.1 to 4; conditions: plain residues with an end cap or a label only (N-terminal biotin on a linker: ado-ado)
T4 sequence (O15018 329-429, limits assumed, looked up): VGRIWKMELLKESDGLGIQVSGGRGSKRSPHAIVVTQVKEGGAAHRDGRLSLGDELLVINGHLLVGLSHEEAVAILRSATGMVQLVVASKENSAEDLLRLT

Row | Binder | pKd
25 | B1 | below the threshold
26 | B2 | below the threshold

target: T5, SNTA1, Q13424; experiment: holdup assay; parameters: key: below the threshold = too weak to quantify, mostly under pKd 3.1 to 4; conditions: plain residues with an end cap or a label only (N-terminal biotin on a linker: ado-ado)
T5 sequence (Q13424 82-180, limits assumed, looked up): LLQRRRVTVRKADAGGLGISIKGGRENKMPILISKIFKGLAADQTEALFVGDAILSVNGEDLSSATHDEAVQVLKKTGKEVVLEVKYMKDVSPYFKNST

Row | Binder | pKd
27 | B1 | below the threshold
28 | B2 | below the threshold

target: FRMPD2_1, Q68DX3; experiment: holdup assay; parameters: key: below the threshold = too weak to quantify, mostly under pKd 3.1 to 4; conditions: plain residues with an end cap or a label only (N-terminal biotin on a linker: ado-ado)
Sequence (Q68DX3 770-861): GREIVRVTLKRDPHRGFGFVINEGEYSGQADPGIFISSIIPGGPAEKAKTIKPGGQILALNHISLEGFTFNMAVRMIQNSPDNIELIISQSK

Row | Binder | pKd
29 | B1 | below the threshold
30 | B2 | below the threshold

target: Inadl_6, Q8NI35; experiment: holdup assay; parameters: key: below the threshold = too weak to quantify, mostly under pKd 3.1 to 4; conditions: plain residues with an end cap or a label only (N-terminal biotin on a linker: ado-ado)
Sequence (Q8NI35 1058-1167): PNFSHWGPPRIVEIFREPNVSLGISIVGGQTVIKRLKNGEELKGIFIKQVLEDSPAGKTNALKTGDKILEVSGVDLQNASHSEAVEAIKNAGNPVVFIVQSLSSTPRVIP

Row | Binder | pKd
31 | B1 | below the threshold
32 | B2 | below the threshold

target: MAGI2_4, Q86UL8; experiment: holdup assay; parameters: key: below the threshold = too weak to quantify, mostly under pKd 3.1 to 4; conditions: plain residues with an end cap or a label only (N-terminal biotin on a linker: ado-ado)
Sequence (Q86UL8 772-865): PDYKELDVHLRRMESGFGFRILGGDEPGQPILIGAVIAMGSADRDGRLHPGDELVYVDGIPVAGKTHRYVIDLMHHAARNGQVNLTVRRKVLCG

Row | Binder | pKd
33 | B1 | below the threshold
34 | B2 | below the threshold

target: MAGI2_3, Q86UL8; experiment: holdup assay; parameters: key: below the threshold = too weak to quantify, mostly under pKd 3.1 to 4; conditions: plain residues with an end cap or a label only (N-terminal biotin on a linker: ado-ado)
Sequence (Q86UL8 600-682): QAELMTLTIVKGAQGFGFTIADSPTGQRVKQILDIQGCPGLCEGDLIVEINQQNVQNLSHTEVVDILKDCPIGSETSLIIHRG

Row | Binder | pKd
35 | B1 | below the threshold
36 | B2 | below the threshold

target: T6, NHERF3_4, Q5T2W1; experiment: holdup assay; parameters: key: below the threshold = too weak to quantify, mostly under pKd 3.1 to 4; conditions: plain residues with an end cap or a label only (N-terminal biotin on a linker: ado-ado)
T6 sequence (Q5T2W1 373-468, limits assumed, looked up): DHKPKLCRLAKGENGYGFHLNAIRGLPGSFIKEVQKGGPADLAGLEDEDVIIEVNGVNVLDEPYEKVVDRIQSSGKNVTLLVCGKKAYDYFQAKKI

Row | Binder | pKd
37 | B1 | below the threshold
38 | B2 | below the threshold

target: MAGI2_5, Q86UL8; experiment: holdup assay; parameters: key: below the threshold = too weak to quantify, mostly under pKd 3.1 to 4; conditions: plain residues with an end cap or a label only (N-terminal biotin on a linker: ado-ado)
Sequence (Q86UL8 915-1017): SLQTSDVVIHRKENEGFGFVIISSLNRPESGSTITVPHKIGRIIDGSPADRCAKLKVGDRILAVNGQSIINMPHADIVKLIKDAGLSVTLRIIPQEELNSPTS

Row | Binder | pKd
39 | B1 | below the threshold
40 | B2 | below the threshold

target: HTRA1, Q92743; experiment: holdup assay; parameters: key: below the threshold = too weak to quantify, mostly under pKd 3.1 to 4; conditions: plain residues with an end cap or a label only (N-terminal biotin on a linker: ado-ado)
Sequence (Q92743 360-477): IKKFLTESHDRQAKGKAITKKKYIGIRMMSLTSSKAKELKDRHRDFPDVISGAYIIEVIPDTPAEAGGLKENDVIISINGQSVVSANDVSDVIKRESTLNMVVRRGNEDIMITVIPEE

Row | Binder | pKd
41 | B1 | 3.89
42 | B2 | 4.9

target: Inadl_5, Q8NI35; experiment: holdup assay; parameters: key: below the threshold = too weak to quantify, mostly under pKd 3.1 to 4; conditions: plain residues with an end cap or a label only (N-terminal biotin on a linker: ado-ado)
Sequence (Q8NI35 673-780): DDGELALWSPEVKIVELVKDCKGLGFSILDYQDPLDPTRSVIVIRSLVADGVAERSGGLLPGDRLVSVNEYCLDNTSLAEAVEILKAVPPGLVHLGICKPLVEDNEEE

Row | Binder | pKd
43 | B1 | below the threshold
44 | B2 | below the threshold

target: LNX1_3, Q8TBB1; experiment: holdup assay; parameters: key: below the threshold = too weak to quantify, mostly under pKd 3.1 to 4; conditions: plain residues with an end cap or a label only (N-terminal biotin on a linker: ado-ado)
Sequence (Q8TBB1 500-596): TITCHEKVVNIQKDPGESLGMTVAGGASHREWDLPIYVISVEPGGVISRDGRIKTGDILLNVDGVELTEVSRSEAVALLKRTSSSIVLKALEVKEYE

Row | Binder | pKd
45 | B1 | below the threshold
46 | B2 | below the threshold

target: T7, HTRA4, P83105; experiment: holdup assay; parameters: key: below the threshold = too weak to quantify, mostly under pKd 3.1 to 4; conditions: plain residues with an end cap or a label only (N-terminal biotin on a linker: ado-ado)
T7 sequence (P83105 378-476, limits assumed, looked up): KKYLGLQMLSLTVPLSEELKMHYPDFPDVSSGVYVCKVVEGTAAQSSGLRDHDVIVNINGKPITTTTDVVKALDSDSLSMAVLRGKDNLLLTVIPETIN

Row | Binder | pKd
47 | B1 | below the threshold
48 | B2 | below the threshold

target: GRIP2_4, Q9C0E4; experiment: holdup assay; parameters: key: below the threshold = too weak to quantify, mostly under pKd 3.1 to 4; conditions: plain residues with an end cap or a label only (N-terminal biotin on a linker: ado-ado)
Sequence (Q9C0E4 446-548): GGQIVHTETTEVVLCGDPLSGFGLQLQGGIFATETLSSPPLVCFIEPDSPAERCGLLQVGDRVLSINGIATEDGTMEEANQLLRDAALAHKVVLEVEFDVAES

Row | Binder | pKd
49 | B1 | below the threshold
50 | B2 | below the threshold

target: T8, SIPA1L2, Q9P2F8; experiment: holdup assay; parameters: key: below the threshold = too weak to quantify, mostly under pKd 3.1 to 4; conditions: plain residues with an end cap or a label only (N-terminal biotin on a linker: ado-ado)
T8 sequence (Q9P2F8 945-1036, limits assumed, looked up): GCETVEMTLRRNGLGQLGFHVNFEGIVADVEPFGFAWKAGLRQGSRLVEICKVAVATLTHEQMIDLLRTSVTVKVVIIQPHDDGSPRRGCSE

Row | Binder | pKd
51 | B1 | below the threshold
52 | B2 | below the threshold

target: T9, TJP3_3, O95049; experiment: holdup assay; parameters: key: below the threshold = too weak to quantify, mostly under pKd 3.1 to 4; conditions: plain residues with an end cap or a label only (N-terminal biotin on a linker: ado-ado)
T9 sequence (O95049 375-456, limits assumed, looked up): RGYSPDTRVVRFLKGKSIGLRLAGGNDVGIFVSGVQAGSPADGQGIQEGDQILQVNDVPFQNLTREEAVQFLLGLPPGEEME

Row | Binder | pKd
53 | B1 | below the threshold
54 | B2 | below the threshold

target: T10, SNTG1, Q9NSN8; experiment: holdup assay; parameters: key: below the threshold = too weak to quantify, mostly under pKd 3.1 to 4; conditions: plain residues with an end cap or a label only (N-terminal biotin on a linker: ado-ado)
T10 sequence (Q9NSN8 52-150, limits assumed, looked up): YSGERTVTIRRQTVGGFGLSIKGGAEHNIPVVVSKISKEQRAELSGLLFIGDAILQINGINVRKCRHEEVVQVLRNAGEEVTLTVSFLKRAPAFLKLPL

Row | Binder | pKd
55 | B1 | below the threshold
56 | B2 | below the threshold

target: CASK, O14936; experiment: holdup assay; parameters: key: below the threshold = too weak to quantify, mostly under pKd 3.1 to 4; conditions: plain residues with an end cap or a label only (N-terminal biotin on a linker: ado-ado)
Sequence (O14936 487-570): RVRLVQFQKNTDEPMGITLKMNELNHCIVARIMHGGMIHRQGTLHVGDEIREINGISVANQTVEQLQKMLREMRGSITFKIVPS

Row | Binder | pKd
57 | B1 | below the threshold
58 | B2 | below the threshold

Reference: article PMC9482650, “Quantitative fragmentomics allow affinity mapping of interactomes” (Nature Communications, 2022)
